The text below walks through data of US20170224836A1 (Novartis, published 2017).

Test [1] concerns the target T1, hCDH6aa54-615 APPavi (human, UniProt P55285 54-615).
T1 sequence: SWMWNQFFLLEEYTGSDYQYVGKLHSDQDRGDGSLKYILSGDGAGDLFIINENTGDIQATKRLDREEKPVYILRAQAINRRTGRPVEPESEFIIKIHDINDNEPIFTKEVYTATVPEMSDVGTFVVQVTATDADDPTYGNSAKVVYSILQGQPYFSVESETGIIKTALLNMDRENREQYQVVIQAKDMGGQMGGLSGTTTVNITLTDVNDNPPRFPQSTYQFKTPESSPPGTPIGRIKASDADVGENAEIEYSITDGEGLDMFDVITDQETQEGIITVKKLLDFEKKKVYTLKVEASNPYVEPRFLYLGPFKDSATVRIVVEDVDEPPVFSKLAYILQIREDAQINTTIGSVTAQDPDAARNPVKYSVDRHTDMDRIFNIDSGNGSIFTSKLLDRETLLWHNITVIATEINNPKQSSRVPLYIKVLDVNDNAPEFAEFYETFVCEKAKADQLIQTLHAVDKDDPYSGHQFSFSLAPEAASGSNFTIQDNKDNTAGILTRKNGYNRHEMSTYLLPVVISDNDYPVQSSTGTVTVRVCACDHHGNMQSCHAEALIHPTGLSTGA
The test can be described thus: SPR binning.

In test [2] the target is T1, hCDH6aa54-615 APPavi. The test can be described thus: SPR binning. This is another data set of the same source.
A further test deals with T2, mouse CDH6 on cells (mouse, UniProt P97326 54-790).
T2 sequence (looked up): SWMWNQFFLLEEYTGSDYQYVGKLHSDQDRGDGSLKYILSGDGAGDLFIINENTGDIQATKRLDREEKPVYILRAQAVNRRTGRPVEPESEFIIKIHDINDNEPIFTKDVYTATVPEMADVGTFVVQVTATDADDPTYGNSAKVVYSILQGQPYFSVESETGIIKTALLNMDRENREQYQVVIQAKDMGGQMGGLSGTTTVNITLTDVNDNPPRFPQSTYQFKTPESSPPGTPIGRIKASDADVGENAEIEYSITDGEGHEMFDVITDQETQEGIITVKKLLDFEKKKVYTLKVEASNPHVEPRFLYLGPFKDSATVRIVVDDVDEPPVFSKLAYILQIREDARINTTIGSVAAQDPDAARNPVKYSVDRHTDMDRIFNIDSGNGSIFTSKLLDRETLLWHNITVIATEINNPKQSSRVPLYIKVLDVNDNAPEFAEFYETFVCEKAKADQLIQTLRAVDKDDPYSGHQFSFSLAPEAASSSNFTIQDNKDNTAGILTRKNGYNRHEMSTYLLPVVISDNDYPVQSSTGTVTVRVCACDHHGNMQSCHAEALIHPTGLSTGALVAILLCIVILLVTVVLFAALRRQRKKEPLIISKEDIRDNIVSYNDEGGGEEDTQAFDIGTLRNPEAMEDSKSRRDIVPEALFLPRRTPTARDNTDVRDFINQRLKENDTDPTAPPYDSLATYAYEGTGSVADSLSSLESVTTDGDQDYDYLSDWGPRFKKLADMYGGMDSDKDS
The test can be described thus: FACS on CHO-mouseCDH6 cells.

In the next test the target is T3, cynomolgus CDH6 on cells (cynomolgus, UniProt A0A2K5TW62 54-790).
T3 sequence: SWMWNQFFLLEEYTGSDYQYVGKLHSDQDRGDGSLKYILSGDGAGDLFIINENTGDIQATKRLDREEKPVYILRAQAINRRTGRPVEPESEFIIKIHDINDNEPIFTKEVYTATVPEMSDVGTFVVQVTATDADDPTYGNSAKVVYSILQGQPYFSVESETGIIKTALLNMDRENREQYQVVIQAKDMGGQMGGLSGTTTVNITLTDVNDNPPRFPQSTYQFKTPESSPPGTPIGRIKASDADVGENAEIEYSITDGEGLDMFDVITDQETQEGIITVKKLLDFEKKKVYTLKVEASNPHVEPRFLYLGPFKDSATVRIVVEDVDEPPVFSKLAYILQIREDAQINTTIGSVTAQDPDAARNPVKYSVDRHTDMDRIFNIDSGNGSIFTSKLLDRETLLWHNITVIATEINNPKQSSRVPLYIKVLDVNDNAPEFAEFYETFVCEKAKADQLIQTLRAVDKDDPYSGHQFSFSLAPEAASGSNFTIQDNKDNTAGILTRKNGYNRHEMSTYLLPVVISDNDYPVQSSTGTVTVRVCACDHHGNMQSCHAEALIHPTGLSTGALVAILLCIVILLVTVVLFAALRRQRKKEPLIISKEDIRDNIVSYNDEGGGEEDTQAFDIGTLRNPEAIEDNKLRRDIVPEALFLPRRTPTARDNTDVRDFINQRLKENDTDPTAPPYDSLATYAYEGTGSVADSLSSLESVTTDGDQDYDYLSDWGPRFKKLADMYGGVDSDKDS
The test can be described thus: FACS on CHO-cynoCDH6 cells.

Read-outs that look alike come from different tables or passages of the source.

B1: NOV0712 (antibody, human IgG1, kappa, V domains shown)
VH: QVQLLESGGGLVQPGGSLRLSCAASGFTFSSHGMHWVRQAPGKGLEWVSVISGSGSNTGYADSVKGRFTISRDNSKNTLYLQMNSLRAEDTAVYYCARQWGSYAFDSWGQGTLVTVSS
VL: DIQMTQSPSSLSASVGDRVTITCRASQSISSYLNWYQQKPGKAPKLLIYAVSTLQSGVPSRFSGSGSGTDFTLTISSLQPEDFATYYCQQSGTFPPTTFGQGTKVEIKR
As a reminder, the EC50 (read off the curve) is the concentration that produces a half-maximal response. The low end stands for greater potency, the high end for weaker potency. With B1, the “response of secondary antibody on primary antibody-CDH6 complex” value was 9.51 with hCDH6aa54-615 APPavi [1] and -3.26 in the test with hCDH6aa54-615 APPavi [2]. The “EC50 (read off the curve)” value with mouse CDH6 on cells and with cynomolgus CDH6 on cells was roughly 1 nM each time.
